First the molecules themselves.
T1: AP2-HC D1 (Plasmodium falciparum, UniProt Q8IKR9 1316-1374)
T1 sequence: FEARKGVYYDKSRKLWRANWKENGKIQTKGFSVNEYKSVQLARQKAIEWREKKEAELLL

B1: CACACA_site3027 (dsDNA)
DNA 1: AAGTTTATTTGTTGCACACATATAAGTAGAGAAAAT
DNA 2: ATTTTCTCTACTTATATGTGTGCAACAAATAAACTT
B2: CACACA_site1016 (dsDNA)
DNA 1: AAATAATGGTTAGCTACACACAAAGCATTTTTTGAA
DNA 2: TTCAAAAAATGCTTTGTGTGTAGCTAACCATTATTT
B3: CACACA_site1421 (dsDNA)
DNA 1: AAAAGTAACAAAGCTACACACATTTAAATAAACATA
DNA 2: TATGTTTATTTAAATGTGTGTAGCTTTGTTACTTTT
B4: CACACA_site3184 (dsDNA)
DNA 1: TACTAAAACCCATACACACACATATATATAGTACCA
DNA 2: TGGTACTATATATATGTGTGTGTATGGGTTTTAGTA
B5: CACACA_site8596 (dsDNA)
DNA 1: AATGTGTATATATATACACACACATATATATATTTT
DNA 2: AAAATATATATATGTGTGTGTATATATATACACATT
B6: CACACA_site1501 (dsDNA)
DNA 1: TAATAATAATTATATACACACATGTATATTATATTT
DNA 2: AAATATAATATACATGTGTGTATATAATTATTATTA
B7: CACACA_site1542 (dsDNA)
DNA 1: AATGTACAAATACGTACACACATATATATATATATA
DNA 2: TATATATATATATATGTGTGTACGTATTTGTACATT
B8: CACACA_site8543 (dsDNA)
DNA 1: ATTAATATATAACGTGCACACACACCGTTACGTATG
DNA 2: CATACGTAACGGTGTGTGTGCACGTTATATATTAAT
B9: CACACA_site2466 (dsDNA)
DNA 1: TACCTAATATGTTATACACACATTATGAGTACATAT
DNA 2: ATATGTACTCATAATGTGTGTATAACATATTAGGTA
B10: CACACA_site762 (dsDNA)
DNA 1: ATTTTTTTATTTTGTGCACACACATAAAAATATATA
DNA 2: TATATATTTTTATGTGTGTGCACAAAATAAAAAAAT
B11: CACACA_site6202 (dsDNA)
DNA 1: CTCATCCTTACATACACACACATATATTTATTTATA
DNA 2: TATAAATAAATATATGTGTGTGTATGTAAGGATGAG
B12: CACACA_site8866 (dsDNA)
DNA 1: CCGCCATTGTACCATCCACACACATATATATATGTA
DNA 2: TACATATATATATGTGTGTGGATGGTACAATGGCGG
B13: CACACA_site7028 (dsDNA)
DNA 1: CATACATACATACATACACACATATATAAATATATG
DNA 2: CATATATTTATATATGTGTGTATGTATGTATGTATG
B14: CACACA_site4209 (dsDNA)
DNA 1: TATATATATGGACACACACACACCAAAGCGTAGCGC
DNA 2: GCGCTACGCTTTGGTGTGTGTGTGTCCATATATATA
B15: CACACA_site3383 (dsDNA)
DNA 1: ATATTAAACAAACACACACACATATATATATATATA
DNA 2: TATATATATATATATGTGTGTGTGTTTGTTTAATAT
B16: CACACA_site7599 (dsDNA)
DNA 1: AGCATTTTAAGTTATACACACATTTTGAATCTATAT
DNA 2: ATATAGATTCAAAATGTGTGTATAACTTAAAATGCT
B17: CACACA_site8848 (dsDNA)
DNA 1: ATATAAATTTTTTATGAACACACAAATACAGACACT
DNA 2: AGTGTCTGTATTTGTGTGTTCATAAAAAATTTATAT
B18: CACACA_site5095 (dsDNA)
DNA 1: ACATCATTTTTATGTACACACACATATACGTTGAAT
DNA 2: ATTCAACGTATATGTGTGTGTACATAAAAATGATGT
B19: CACACA_site8531 (dsDNA)
DNA 1: ATTTATAATTTTTGAGCACACACAAGCATATATATA
DNA 2: TATATATATGCTTGTGTGTGCTCAAAAATTATAAAT
B20: CACACA_site9385 (dsDNA)
DNA 1: AATATATGTTTAATTTCACACACAAATATACATTTT
DNA 2: AAAATGTATATTTGTGTGTGAAATTAAACATATATT
B21: CACACA_site6756 (dsDNA)
DNA 1: ACAAATAAAAAAATTACACACATATAAAATATAGAT
DNA 2: ATCTATATTTTATATGTGTGTAATTTTTTTATTTGT
B22: CACACA_site269 (dsDNA)
DNA 1: AAATAATTCAAAAAAACACACAAATTACAAAATAAA
DNA 2: TTTATTTTGTAATTTGTGTGTTTTTTTGAATTATTT
B23: CACACA_site8569 (dsDNA)
DNA 1: CTTTAATATTTTATTTCACACACATAAATGCCCCAA
DNA 2: TTGGGGCATTTATGTGTGTGAAATAAAATATTAAAG
B24: CACACA_site1177 (dsDNA)
DNA 1: TTAATTTATAAAAACACACACAGGTAAAAAGGTGCA
DNA 2: TGCACCTTTTTACCTGTGTGTGTTTTTATAAATTAA
B25: CACACA_site1431 (dsDNA)
DNA 1: AAAAAAAAAAAAAATACACACAAATAATAAAAATAA
DNA 2: TTATTTTTATTATTTGTGTGTATTTTTTTTTTTTTT
B26: CACACA_site9374 (dsDNA)
DNA 1: TATAGAATAATCTATAAACACACAAACACAACAAAA
DNA 2: TTTTGTTGTGTTTGTGTGTTTATAGATTATTCTATA
B27: CACACA_site6324 (dsDNA)
DNA 1: CATAAATCAGCCATAACACACATACCTATATACATA
DNA 2: TATGTATATAGGTATGTGTGTTATGGCTGATTTATG
B28: CACACA_site7688 (dsDNA)
DNA 1: AATATAAATAAAAACACACACAATGGTACCTATATA
DNA 2: TATATAGGTACCATTGTGTGTGTTTTTATTTATATT
B29: CACACA_site4030 (dsDNA)
DNA 1: AAGGAAATATAATATACACACATAAGTGTACTTATA
DNA 2: TATAAGTACACTTATGTGTGTATATTATATTTCCTT
B30: CACACA_site806 (dsDNA)
DNA 1: ATTTAAATAAGATATACACACAAGTAGAAGACTATG
DNA 2: CATAGTCTTCTACTTGTGTGTATATCTTATTTAAAT
B31: CACACA_site8 (dsDNA)
DNA 1: TTTATAATTTATATCACACACATATATATATAGTAA
DNA 2: TTACTATATATATATGTGTGTGATATAAATTATAAA
B32: CACACA_site8859 (dsDNA)
DNA 1: ACGATGTTCATCACTACACACACAAAGAAATATATA
DNA 2: TATATATTTCTTTGTGTGTGTAGTGATGAACATCGT
B33: CACACA_site1745 (dsDNA)
DNA 1: CACATACAGACATACACACATACACATATACGCATA
DNA 2: TATGCGTATATGTGTATGTGTGTATGTCTGTATGTG
B34: CACACA_site1704 (dsDNA)
DNA 1: ACCTCATAATATTTAACACACAAAATTATATGTATG
DNA 2: CATACATATAATTTTGTGTGTTAAATATTATGAGGT
B35: CACACA_site5932 (dsDNA)
DNA 1: GCATTGTCCATGCGCACACACTACTAGAATAATATG
DNA 2: CATATTATTCTAGTAGTGTGTGCGCATGGACAATGC
B36: CACACA_site2250 (dsDNA)
DNA 1: GAAAGAATAAAATTTACACACATATATATATACATA
DNA 2: TATGTATATATATATGTGTGTAAATTTTATTCTTTC
B37: CACACA_site6959 (dsDNA)
DNA 1: GTTTCCTTAATATTCACACACATATCTATAATATAT
DNA 2: ATATATTATAGATATGTGTGTGAATATTAAGGAAAC
B38: CACACA_site65 (dsDNA)
DNA 1: CATGTAATATTAAACACACACTCATATAACACAATA
DNA 2: TATTGTGTTATATGAGTGTGTGTTTAATATTACATG
B39: CACACA_site9055 (dsDNA)
DNA 1: ATATATATATATATTGTACACACATTTATGCATATA
DNA 2: TATATGCATAAATGTGTGTACAATATATATATATAT
B40: CACACA_site7630 (dsDNA)
DNA 1: ATTATACACGCGCGCACACACAACAAAAAAAAAAAA
DNA 2: TTTTTTTTTTTTGTTGTGTGTGCGCGCGTGTATAAT
B41: CACACA_site9254 (dsDNA)
DNA 1: TTAATAAATATCAATACACACACACTAATGTGAATA
DNA 2: TATTCACATTAGTGTGTGTGTATTGATATTTATTAA

The target in this data set is T1, AP2-HC D1. Description: gcPBM; about 25 ug protein; PBS, 1% milk, 0.2 mg/ml BSA, salmon testes DNA, 0.03% Triton X-100. The conditions noted are these: tags: N-terminal GST (pGEX-4T-1), kept; label: surface-attached array probe.
For B1, the binding signal is 9.88 ln median PBM intensity, better of two orientations. Regarding B2, the binding signal was 9.81 ln median PBM intensity, better of two orientations. To B3 belongs 9.84 ln median PBM intensity, better of two orientations; to B4, 10.2 ln median PBM intensity, better of two orientations. As to B5, the binding signal was 10.1 ln median PBM intensity, better of two orientations. To B6 belongs 9.81 ln median PBM intensity, better of two orientations. Consider B7, for which the binding signal was 10.2 ln median PBM intensity, better of two orientations. With B8, the binding signal was 10.3 ln median PBM intensity, better of two orientations. Regarding B9, the binding signal was 9.88 ln median PBM intensity, better of two orientations. To B10 belongs 9.86 ln median PBM intensity, better of two orientations. For B11, the binding signal is 10.2 ln median PBM intensity, better of two orientations. As to B12, the binding signal was 10.3 ln median PBM intensity, better of two orientations. In the case of B13, the binding signal was 10.2 ln median PBM intensity, better of two orientations. Next, B14: 10.3 ln median PBM intensity, better of two orientations. Next, B15: 10.2 ln median PBM intensity, better of two orientations. To B16 belongs 9.87 ln median PBM intensity, better of two orientations; to B17, 10.3 ln median PBM intensity, better of two orientations. As for B18, the binding signal is 10.2 ln median PBM intensity, better of two orientations. Turning to B19, the binding signal is 9.85 ln median PBM intensity, better of two orientations. To B20 belongs 10.2 ln median PBM intensity, better of two orientations; to B21, 10.1 ln median PBM intensity, better of two orientations; to B22, 10.2 ln median PBM intensity, better of two orientations. With B23, the binding signal is 9.84 ln median PBM intensity, better of two orientations. Consider B24, for which the binding signal was 10.3 ln median PBM intensity, better of two orientations. Next, B25: 10.1 ln median PBM intensity, better of two orientations; B26: 10.1 ln median PBM intensity, better of two orientations; B27: 10.3 ln median PBM intensity, better of two orientations. Next, B28: 10.3 ln median PBM intensity, better of two orientations; B29: 9.82 ln median PBM intensity, better of two orientations; B30: 9.85 ln median PBM intensity, better of two orientations.

Turning to B31, the binding signal was 9.83 ln median PBM intensity, better of two orientations. Next, B32: 10.1 ln median PBM intensity, better of two orientations; B33: 10.2 ln median PBM intensity, better of two orientations. For the molecule B34, the binding signal was 9.87 ln median PBM intensity, better of two orientations. In the case of B35, the binding signal is 10.2 ln median PBM intensity, better of two orientations.

As to B36, the binding signal is 9.82 ln median PBM intensity, better of two orientations.

Regarding B37, the binding signal is 10.2 ln median PBM intensity, better of two orientations. In the case of B38, the binding signal is 10.2 ln median PBM intensity, better of two orientations. B39: the binding signal was 10.3 ln median PBM intensity, better of two orientations.

Consider B40, for which the binding signal was 10.3 ln median PBM intensity, better of two orientations. Turning to B41, the binding signal is 10.1 ln median PBM intensity, better of two orientations.

The values above are taken from PMC11417369, “DNA sequence and chromatin differentiate sequence-specific transcription factor binding in the human malaria parasite Plasmodium falciparum”.
